According to paper PMC4657330, “Rac1 augments Wnt signaling by stimulating β-catenin–lymphoid enhancer factor-1 complex assembly independent of β-catenin nuclear import” (Journal of Cell Science, 2015):
Residue numbers refer to the chain shown, from its start. Names may count otherwise.

B1: myc-tagged β-catenin S191A (natural protein, UniProt P35222 1-781, looked up)
chain: MATQADLMELDMAMEPDRKAAVSHWQQQSYLDSGIHSGATTTAPSLSGKGNPEEEDVDTSQVLYEWEQGFSQSFTQEQVADIDGQYAMTRAQRVRAAMFPETLDEGMQIPSTQFDAAHPTNVQRLAEPSQMLKHAVVNLINYQDDAELATRAIPELTKLLNDEDQVVVNKAAVMVHQLSKKEASRHAIMRAPQMVSAIVRTMQNTNDVETARCTAGTLHNLSHHREGLLAIFKSGGIPALVKMLGSPVDSVLFYAITTLHNLLLHQEGAKMAVRLAGGLQKMVALLNKTNVKFLAITTDCLQILAYGNQESKLIILASGGPQALVNIMRTYTYEKLLWTTSRVLKVLSVCSSNKPAIVEAGGMQALGLHLTDPSQRLVQNCLWTLRNLSDAATKQEGMEGLLGTLVQLLGSDDINVVTCAAGILSNLTCNNYKNKMMVCQVGGIEALVRTVLRAGDREDITEPAICALRHLTSRHQEAEMAQNAVRLHYGLPVVVKLLHPPSHWPLIKATVGLIRNLALCPANHAPLREQGAIPRLVQLLVRAHQDTQRRTSMGGTQQQFVEGVRMEEIVEGCTGALHILARDVHNRIVIRGLNTIPLFVQLLYSPIENIQRVAAGVLCELAQDKEAAEAIEAEGATAPLTELLHSRNEGVATYAAAVLFRMSEDKPQDYKKRLSVELTSSLFRTEPMAWNETADLGLDIGAQGEPLGYRQDDPSYRSFHSGGYGQDALGMDPMMEHEMGGHHPGADYPVDGLPDLGHAQDLMDGLPPGDSNQLAWFDTDL
notes: from the Long laboratory (Wu et al., 2008); also called pmyc-β-catenin-S191A; source: NIH 3T3, transfected, in lysate and in fixed cells
B2: myc-tagged β-catenin S605A (natural protein, UniProt P35222 1-781, looked up)
chain: B1 chain with A191S, S605A
notes: from the Long laboratory (Wu et al., 2008); also called pmyc-β-catenin-S605A; source: NIH 3T3, transfected, in lysate and in fixed cells

Target: T1, HA-tagged LEF-1 (UniProt Q9UJU2 1-399)
T1 construct: LEF-1 (lymphoid enhancer factor 1); written both HA-LEF-1 and LEF-1-HA; also called pHA-LEF-1; HA-LEF-1; source: HEK293, transfected, in lysate; NIH 3T3, transfected, in lysate and in fixed cells
T1 sequence (Q9UJU2 whole entry): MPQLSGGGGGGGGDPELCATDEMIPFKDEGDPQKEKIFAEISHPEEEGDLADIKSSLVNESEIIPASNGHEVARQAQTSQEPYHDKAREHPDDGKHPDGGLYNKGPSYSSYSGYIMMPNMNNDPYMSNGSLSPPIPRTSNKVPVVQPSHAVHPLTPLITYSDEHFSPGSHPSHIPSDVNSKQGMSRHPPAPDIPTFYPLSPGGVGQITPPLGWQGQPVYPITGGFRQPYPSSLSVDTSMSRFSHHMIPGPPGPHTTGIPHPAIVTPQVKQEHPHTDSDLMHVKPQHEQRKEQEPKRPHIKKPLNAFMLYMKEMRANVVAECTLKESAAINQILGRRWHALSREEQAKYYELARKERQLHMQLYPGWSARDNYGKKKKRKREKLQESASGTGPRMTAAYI
Experiment: co-IP; NIH 3T3 lysates, pLEF-1-HA co-transfected with pβ-catenin-myc constructs; IP with HA mAb or isotype control IgG, blot with anti-myc; densitometry over three independent experiments
Conditions: partners not purified

Binder | reduction in binding relative to β-catenin-WT (densitometry of the co-IP) [%]
B1 | ~20
B2 | ~50
